Where no end group is shown, it is not given here.
Assays:
[1] = test system: CD4^+ T cells of HLA class II transgenic mice; type: cell-based
[2] = target: DRB1*1301 (DR13) (Homo sapiens, UniProt P01903+P01911, A100E/A169T/K41T/L162R/M171V/P40S/Q125H/Q178H/Q39Y/Q99D/R42S/S66N/T262R/W38E/Y61H); type: binding
[3] = target: DRB1*0701 (DR7) (Homo sapiens, UniProt P01903+P01911, A100R/A102G/A103Q/D57E/D86V/E43K/F76Y/K127E/L162R/M171V/P40G/Q125H/Q99D/R33Q/R42Y/R54Q/S133A/S66F/T210M/V115G/Y107V/Y59L/Y89S); type: binding
[4] = target: DRB1*0301 (DR3) (Homo sapiens, UniProt P01903+P01911, A100K/A102G/A103R/A169T/F55Y/I96L/K41T/L162R/M171V/P40S/Q125H/Q178H/Q39Y/R42S/S66N/T106N/T262R/W38E/Y61H); type: binding
[5] = target: DRB1*0101 (DR1) (Homo sapiens, UniProt P01903+P01911, A100R/D57E/F55L/F60I/F76Y/I96L/L162R/M171V/P40L/Q125E/R42F/V115G/Y59C); type: binding
[6] = target: DRB1*0401 (DR4) (Homo sapiens, UniProt P01903+P01911, A100K/A169T/F76Y/I96L/K127E/L162R/M171V/N62H/P40V/Q125Y/R42H/S133A/S149N/S66Y/V115G/V209L/W38E); type: binding
[7] = target: DRB1*1101 (DR11) (Homo sapiens, UniProt P01903+P01911, A100R/A169T/A87E/I96F/K41T/L162R/M171V/P40S/Q125H/Q178H/Q39Y/Q99D/R42S/S66Y/T262R/V115G/W38E); type: binding
[8] = target: DRB1*1501 (DR15) (Homo sapiens, UniProt P01903+P01911); type: binding

Sequence | CD4 T cell response in LF immunized HLA transgenics [1] | Relative binding affinity of peptide to HLA-DR molecules, DR13 [2] | Relative binding affinity of peptide to HLA-DR molecules, DR7 [3] | HLA-restriction based on CD4 T cell response class II HLA transgenics after priming with LF [1] | Relative binding affinity of peptide to HLA-DR molecules, DR3 [4] | Relative binding affinity of peptide to HLA-DR molecules, DR1 [5] | Relative binding affinity of peptide to HLA-DR molecules, DR4 [6] | Relative binding affinity of peptide to HLA-DR molecules, DR11 [7] | Relative binding affinity of peptide to HLA-DR molecules, DR15 [8] | IC50 ([2]; read-out: IC50 of reference peptide)
NEQEINLSLEELKDQRMLSR [LF 281-300] | did not induce a response in any of the HLA transgenics |  |  |  |  |  |  |  |  | 
EIMKHIVKIEVKGEEAVKKE |  | 19 | 249 | DQ8 | 50 | 243 | 567 | 4 | 329 | 
DTGGLIDSPSINLDVRKQYK |  | 8 | 15 | DR15 | 0.3 | 866 | 935 | 179 | 130 | 
LLFTNQLKEHPTDFSVEFLE |  | >172 | 51 | DQ8 | >76 | 909 | 6 | 148 | 193 | 
AVDDYAGYLLDKNQSDLVTN | HLA-DR4 and HLA-DR15 restricted | >2 733 | 1,789 | DR4, DR15 | 42 | 1,380 | 10 | 55 | 0.1 | 
RNKTQEEHLKEIMKHIVKIE |  | 8 | 77 | DQ8 | >76 | 4810 | >1 539 | 2 | >2 184 | 
YLVDGNGRFVFTDITLPNIA | elicited a T cell response in a single HLA transgenic strain | >2 733 | 19 | DR4 | 0.3 | 123 | 0.3 | 45 | 2 | 
TERVRLVTRHIYNREE [B1 21-36, reference compound] |  |  |  |  |  |  |  |  |  | 37 nM
PEAFNYMDKFNEQEINLSLE |  | >172 | 42 | DQ8 | >76 | 2156 | 2 | 2 | 463 | 
KELLNRIQVDSSNPLSEKEK |  | 1,714 | 36 | DQ8 | 1 | 146 | 0 | 274 | 1 | 
SKKFIDIFKEEGSNLTSYGR | HLA-DR4 and HLA-DR15 restricted | 1,225 | 302 | DR4 | 474 | 4 | 0.2 | 0.4 | 1 | 
VLVIQSSEDYVENTEKALNV |  | >172 | 66 | DR1 | 82 | 1702 | 29 | 168 | 958 | 
YYEIGKILSRDILSKINQPY |  | 5 | 4 | DQ8 | 3 | 69 | 19 | 0.4 | 43 | 
SEGFIHEFGHAVDDYAGYLL | immunodominant epitopes in HLA-DR15 transgenics | >2 733 | 131 | DR15 | >1 000 | 5 | 46 | 849 | 0.04 | 
IGLEIKDVQIIKQSEKEYIRIDAKVVP |  | 24 | 7 | DR1, DR15 | 2 | 1 | 919 | 73 | 1 | 
YVYAKEGYEPVLVIQSSEDY |  | 3 | 1182 | DR1, DQ8 | >238 | 771 | 555 | 14 | >262 | 
PKSKIDTKIQEAQLNINQEW [LF584-603] | did not induce any response in any of the HLA transgenics |  |  |  |  |  |  |  |  | 
